According to patent publication US20230272056A1 (Merck Sharp & Dohme, published 2023):
Positions count from the first letter of the chain named. Names may count otherwise.

B1: 61BLH (Fab, V domains shown)
VH: EVQLVQSGAEVKKPGASVKVSCKASGYTFTSYDMHWVRQAPGQGLEWMGRIDPQTGDIKYAQKFQGRATLTVDTSTSTAYMELSRLRSDDTAVYYCARWDYGGQFDVWGQGTLVTVSS
VL: DIQMTQSPSSLSASVGDRVTITCRASQDIYNYLNWYQQKPGKAVKLLIYYTSGLETGVPSRFSGSGSGTDYTLTISSLQPEDFATYFCQQGDTLPWTFGQGTKLEIK
notes: also called 13BLM Fab
B2: 58BLH (Fab, V domains shown)
VH: B1 VH with T55S, D57G, I58T, Q104Y
VL: B1 VL with G53V
notes: also called 10BLM Fab
B3: 56BLH (Fab, V domains shown)
VH: B1 VH with T55S, D57G, I58T
VL: B1 VL
notes: also called 08BLM Fab
B4: 65BLH (Fab, V domains shown)
VH: B1 VH with T55S, D57G, Q104Y
VL: B1 VL with G53R, T93E
notes: also called 17BLM Fab
B5: 57BLH (Fab, V domains shown)
VH: B1 VH with Q54I, T55S, D57G, Q104Y
VL: B1 VL with Y30F, G53H
notes: also called 09BLM Fab
B6: 62BLH (Fab, V domains shown)
VH: B1 VH with M34T, T55S, D57G, Q104Y
VL: B1 VL with G53Y
notes: also called 14BLM Fab
B7: 66BLH (Fab, V domains shown)
VH: B1 VH with T55S, D57G, W99Y, Y101H, Q104Y
VL: B1 VL with G53R
notes: also called 18BLM Fab
B8: 12BLM (antibody, human IgG1, kappa, L234A L235A, V domains shown)
VH: B1 VH with T55S, D57G, I58V, Q104Y
VL: DIQMTQSPSSLSASVGDRVTITCRASQDIYNYLNWYQQKPGKAVKLLIYYTSVLETGVPSRFSGSGSGTDYTLTISSLQPEDFATYFCQQGDELPWTFGQGTKLEIKR
notes: IgG1 L234A L235A D265S/kappa; also called 75BLH; 48BMD
B9: 19BLM (antibody, human IgG1, kappa, L234A L235A, V domains shown)
VH: B1 VH with T55S, D57G, W99Y, Y101H, Q104Y
VL: B8 VL with V53Y, E93T
notes: IgG1 L234A L235A D265S/kappa; also called 82BLH; 55BMD
B10: 18BLM (antibody, human IgG1, kappa, L234A L235A, V domains shown)
VH: B1 VH with T55S, D57G, W99Y, Y101H, Q104Y
VL: B8 VL with V53R, E93T
notes: IgG1 L234A L235A D265S/kappa; also called 81BLH; 54BMD
B11: 15BLM (antibody, human IgG1, kappa, L234A L235A, V domains shown)
VH: B1 VH with T55S, D57G, Q104Y
VL: B8 VL with V53R, E93T
notes: IgG1 L234A L235A D265S/kappa; also called 78BLH; 51BMD

Target: T1, human LAP-TGFB1 Fc fusion (human)
T1 construct: also called human LAP-TGFβ1-Fc; human LAP-TGFβ-Fc isoform 1
T1 sequence (chain, as listed by the source limits assumed): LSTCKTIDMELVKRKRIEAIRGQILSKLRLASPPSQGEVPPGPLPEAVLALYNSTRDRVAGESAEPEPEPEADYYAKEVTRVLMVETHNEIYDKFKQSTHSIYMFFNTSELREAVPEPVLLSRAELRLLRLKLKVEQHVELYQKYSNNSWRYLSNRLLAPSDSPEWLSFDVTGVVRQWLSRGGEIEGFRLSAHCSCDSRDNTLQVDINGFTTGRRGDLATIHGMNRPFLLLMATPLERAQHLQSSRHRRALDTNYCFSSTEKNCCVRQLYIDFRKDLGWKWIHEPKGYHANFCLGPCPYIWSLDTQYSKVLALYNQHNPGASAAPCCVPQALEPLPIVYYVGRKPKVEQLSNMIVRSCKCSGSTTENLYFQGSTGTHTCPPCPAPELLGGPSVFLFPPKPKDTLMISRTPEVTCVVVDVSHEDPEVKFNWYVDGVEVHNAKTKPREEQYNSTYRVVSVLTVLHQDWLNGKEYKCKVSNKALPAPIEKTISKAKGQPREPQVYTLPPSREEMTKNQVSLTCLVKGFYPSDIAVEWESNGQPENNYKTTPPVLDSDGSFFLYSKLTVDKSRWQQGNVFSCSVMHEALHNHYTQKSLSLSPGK
Test: SPR

Row | Fold change in KD from pH 7.4 to pH 6 [fold] | Binder
1 | 2.4 | B1
2 | 1.6 | B2
3 | 1.7 | B3
4 | 0.4 | B4
5 | 1.3 | B5
6 | 1.2 | B6

Target: T2, human LAP-TGFB2 Fc fusion (human)
T2 construct: also called human LAP-TGFβ2; LAP-TGFβ isoform 2
T2 sequence (chain, as listed by the source limits assumed): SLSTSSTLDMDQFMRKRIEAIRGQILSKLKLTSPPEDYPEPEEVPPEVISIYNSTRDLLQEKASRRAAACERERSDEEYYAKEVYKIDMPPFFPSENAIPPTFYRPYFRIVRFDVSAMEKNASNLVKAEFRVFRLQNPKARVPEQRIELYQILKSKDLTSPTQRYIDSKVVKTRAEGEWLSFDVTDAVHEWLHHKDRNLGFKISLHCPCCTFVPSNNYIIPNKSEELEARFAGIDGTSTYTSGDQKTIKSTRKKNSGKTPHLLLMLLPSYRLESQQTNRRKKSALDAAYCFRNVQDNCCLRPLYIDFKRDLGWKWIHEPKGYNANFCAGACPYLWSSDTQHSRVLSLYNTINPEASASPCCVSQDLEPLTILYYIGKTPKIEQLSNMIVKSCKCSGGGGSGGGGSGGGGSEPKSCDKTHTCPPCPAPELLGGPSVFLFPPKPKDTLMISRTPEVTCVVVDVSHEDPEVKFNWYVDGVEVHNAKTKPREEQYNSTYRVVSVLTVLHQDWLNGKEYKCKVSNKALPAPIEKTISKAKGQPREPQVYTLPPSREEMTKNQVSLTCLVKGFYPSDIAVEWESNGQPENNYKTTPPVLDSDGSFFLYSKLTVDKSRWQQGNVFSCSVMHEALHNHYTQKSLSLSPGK
Test: SPR pH 7.4

Row | binding result | Binder
7 | no binding (tested: 1000 nM Fab) | B1
8 | no binding (tested: 1000 nM Fab) | B2
9 | no binding (tested: 1000 nM Fab) | B7
10 | no binding (tested: 1000 nM Fab) | B3
11 | no binding (tested: 1000 nM Fab) | B4
12 | no binding (tested: 1000 nM Fab) | B5
13 | no binding (tested: 1000 nM Fab) | B6

Target: T3, human LAP-TGFB3 Fc fusion (human)
T3 construct: also called human LAP-TGFβ3; LAP-TGFβ isoform 3
T3 sequence (chain, as listed by the source limits assumed): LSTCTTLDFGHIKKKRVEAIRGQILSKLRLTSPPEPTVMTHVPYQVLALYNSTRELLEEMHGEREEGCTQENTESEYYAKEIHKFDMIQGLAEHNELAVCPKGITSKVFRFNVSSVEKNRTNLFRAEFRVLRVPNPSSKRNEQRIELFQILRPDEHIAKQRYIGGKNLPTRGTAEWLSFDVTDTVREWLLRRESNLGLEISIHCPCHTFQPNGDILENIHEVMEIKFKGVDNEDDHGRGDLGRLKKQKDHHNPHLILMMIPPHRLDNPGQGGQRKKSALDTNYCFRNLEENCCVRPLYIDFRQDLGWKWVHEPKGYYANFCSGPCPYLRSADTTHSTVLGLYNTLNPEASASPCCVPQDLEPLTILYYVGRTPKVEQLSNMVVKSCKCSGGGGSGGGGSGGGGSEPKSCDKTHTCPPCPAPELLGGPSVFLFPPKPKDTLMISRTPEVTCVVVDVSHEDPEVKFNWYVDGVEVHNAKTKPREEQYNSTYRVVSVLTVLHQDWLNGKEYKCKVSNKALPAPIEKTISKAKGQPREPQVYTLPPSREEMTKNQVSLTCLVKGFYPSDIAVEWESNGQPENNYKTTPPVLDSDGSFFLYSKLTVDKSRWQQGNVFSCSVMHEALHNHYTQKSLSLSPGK
Test: SPR pH 7.4

Row | binding result | Binder
14 | no binding (tested: 1000 nM Fab) | B1
15 | no binding (tested: 1000 nM Fab) | B2
16 | no binding (tested: 1000 nM Fab) | B7
17 | no binding (tested: 1000 nM Fab) | B3
18 | no binding (tested: 1000 nM Fab) | B4
19 | no binding (tested: 1000 nM Fab) | B5
20 | no binding (tested: 1000 nM Fab) | B6

Target: human LAP-TGFβ1 expressed on P3U1 cells (human, UniProt P01137 30-390)
Sequence (P01137 30-390): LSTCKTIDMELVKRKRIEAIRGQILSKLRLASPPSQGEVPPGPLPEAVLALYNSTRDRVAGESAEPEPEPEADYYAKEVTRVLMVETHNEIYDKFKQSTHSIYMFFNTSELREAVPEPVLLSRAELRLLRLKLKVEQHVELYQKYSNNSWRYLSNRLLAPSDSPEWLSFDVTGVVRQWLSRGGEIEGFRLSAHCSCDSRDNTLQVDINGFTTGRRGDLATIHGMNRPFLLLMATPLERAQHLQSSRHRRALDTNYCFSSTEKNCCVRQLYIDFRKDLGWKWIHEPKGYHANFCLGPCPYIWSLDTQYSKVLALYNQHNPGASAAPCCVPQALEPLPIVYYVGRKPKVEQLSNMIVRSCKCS
Test: cell-based or functional assay

Row | Average EC50 [µg/mL] | ELISA assay 2 EC50 [µg/mL] | ELISA assay #1 EC50 [µg/mL] | Binder
21 | 0.063 | 0.096 | 0.0295 | B8
22 | 0.179 | 0.205 | 0.152 | B9
23 | 0.052 | 0.006 | 0.0982 | B10
24 | 0.231 | 0.243 | 0.219 | B11

Target: T4, human LAP-TGFβ1 (construct not stated) (human, UniProt P01137 30-390)
T4 construct: also called human LAP-TGFβ isoform 1; titrant
T4 sequence (P01137 30-390 limits assumed): as the sequence (P01137 30-390) above
Test: KinExA, mAb as constant binding partner
Method: An orthogonal kinetic exclusion assay (KinExA) method was used in this study to measure the affinities of affinity-matured anti-LAP-TGFβ1 antibodies (referred to as the constant binding partner, CBP) and human LAP-TGFβ1 (referred to as the titrant). To determine the free CBP concentration in solution, biotinylated human LAP-TGFβ1 coated PMMA (Sapidyne, catalog 440176) beads were prepared by first coating with biotin-BSA (ThermoScientific, catalog 29130) followed by streptavidin (Invitrogen, catalog S888), and a final coat with biotinylated human LAP-TGFβ1-Fc.
For association rate analysis, an experimentally optimized constant concentration of CBP and titrant, were mixed 1:1 and free CBP was measured at timed intervals ranging from 15 to 10000 seconds. […] The data were analyzed with KinExA Pro software (version 4.4.26) where the free CBP binding signals were converted into percent free response, plotted against time (seconds) and processed with the n-curve software “Kinetics, Direct” analysis method.
For equilibrium affinity analysis, two experimentally optimized CBP concentrations were combined with 1:2 serially diluted titrant, human LAP-TGFβ1, and incubated at room temperature to achieve equilibrium. […] The data was analyzed with KinExA Pro software (version 4.4.26) where the free CBP binding signals were converted into percent free response and plotted against the titrant concentration series. The equilibrium KD was determined by processing with n-curve software “Equilibrium” analysis method.

Row | Kd [nM] | koff [s⁻¹] | kon [M⁻¹ s⁻¹] | Binder
25 | 0.000367 | 7.71e-06 | 2.04e+07 | B8
26 | 0.068 | 1.98e-06 | 29200 | B9
27 | 0.0621 | 6.09e-06 | 98300 | B10
28 | 0.00235 | 2.56e-05 | 1.09e+07 | B11

Target: T1, human LAP-TGFB1 Fc fusion
Test: SPR pH 7.4, antigen captured on Fab 54BLH
Text: (§1) A Series S C1 sensor chip (Cytiva, catalog BR100535) was immobilized with low densities of high affinity Fab 54BLH on a Biacore T200 instrument with 1×HBS-EP+(Teknova, catalog H8022). This surface served as a monovalent capture surface for a low-density layer of heterodimer human LAP-TGFβ1 complex leaving the second binding site exposed for monovalent kinetic binding analysis with both mAbs and Fabs. Immobilized flow cell 1 served as the reference and flow cells 2, 3 and 4 were used to evaluate the binding interaction between human LAP-TGFβ1 and yeast display mutant mAbs and Fabs.
(§2) Approximately 15-25 RU of human LAP-TGFβ1-Fc was captured to the Fab capture surface followed by injection of 1:3 serially diluted Fabs and mAbs from 6 nM to 0.07 nM (Fabs: 54BLH, 55BLH, 60BLH, 63BLH, 64BLH-mAbs: 69BLH, 70BLH) and 1:3 serially diluted Fab and mAbs from 60 nM to 0.74 nM (Fabs: 59BLH, 66BLH, 67BLH—mAbs: 74BLH, 75BLH, 78BLH, 79BLH, 81BLH, 82BLH) including 0 nM. The binding data was double referenced by subtraction of signal from a reference flow cell and the 0 nM injections for evaluation of Fabs and mAbs respectively. Binding rate constants were calculated/determined by fitting the data with a 1:1 binding model (Cytiva Biacore T200 Evaluation software 3.0).

Row | Fab/mAb KD Ratio | Kd [nM] | koff [s⁻¹] | kon [M⁻¹ s⁻¹] | Binder
29 | 3.2 | 0.0111 | 0.000212 | 1.91e+07 | B8
30 | 13.3 | 0.178 | 0.014 | 7.82e+07 | B9
31 |  | 3.13 | 0.0181 | 5.76e+06 | B7
32 | 3.3 | 0.959 | 0.00518 | 5.4e+06 | B10
33 | 4 | 0.0876 | 0.00196 | 2.22e+07 | B11

Target: T1, human LAP-TGFB1 Fc fusion
Test: SPR pH 6.0, antigen captured on Fab 54BLH
Text: as §1, §2

Row | Fab/mAb KD Ratio | Kd [nM] | koff [s⁻¹] | kon [M⁻¹ s⁻¹] | Binder
34 | 2.2 | 0.136 | 0.000936 | 6.86e+06 | B8
35 | 5.5 | 3.43 | 0.0365 | 1.07e+07 | B9
36 |  | 16.8 | 0.0329 | 1.96e+06 | B7
37 | 1.8 | 9.11 | 0.0489 | 5.65e+06 | B10
38 | 3.2 | 0.331 | 0.00399 | 1.21e+07 | B11

Target: T1, human LAP-TGFB1 Fc fusion
Test: SPR pH 7.4, antigen-Fc captured, Fab analyte

Row | Fold improvement in KD [fold] | Kd [nM] | koff [s⁻¹] | kon [M⁻¹ s⁻¹] | Binder
39 | 4500 | 0.013 | 4.52e-05 | 3.57e+06 | B1
40 | 1100 | 0.053 | 0.000313 | 5.93e+06 | B2
41 | 16 | 3.73 | 0.00764 | 2.05e+06 | B7
42 | 9760 | 0.006 | 2.57e-05 | 4.53e+06 | B3
43 | 401 | 0.146 | 0.00107 | 7.33e+06 | B4
44 | 723 | 0.081 | 0.00049 | 6.06e+06 | B5
45 | 222 | 0.246 | 0.00124 | 4.69e+06 | B6

Target: T1, human LAP-TGFB1 Fc fusion
Test: SPR pH 6.0, antigen-Fc captured, Fab analyte
Method: A Series S CM4 sensor chip (Cytiva, catalog BR100534) was immobilized with an anti-human Fc capture antibody following the kit protocol (Cytiva, catalog BR100839) on a Biacore T200 instrument with 1× HBS-EP+ (Teknova, catalog H8022). […] The binding data were double referenced by subtraction of signal from a reference (capture surface only) flow cell and the 0 nM Fab injection. Binding rate constants were determined by fitting the data with a 1:1 binding model (Cytiva Biacore T200 Evaluation software 3.0).

Row | Kd [nM] | koff [s⁻¹] | kon [M⁻¹ s⁻¹] | Binder
46 | 0.031 | 0.000121 | 3.91e+06 | B1
47 | 0.086 | 0.000591 | 6.88e+06 | B2
48 |  | 0.0221 | 2.09e+06 | B7
49 | 0.01 | 5.56e-05 | 5.55e+06 | B3
50 | 0.106 | 0.00159 | 1.54e+07 | B5
51 | 0.29 | 0.00168 | 5.8e+06 | B6

Target: T1, human LAP-TGFB1 Fc fusion
Test: SPR pH 7.4, antigen-Fc captured, Fab analyte
Remark: another data set of the same source

Row | Kd [nM] | koff [s⁻¹] | kon [M⁻¹ s⁻¹] | Binder
52 | 0.013 | 4.52e-05 | 3.57e+06 | B1
53 | 0.053 | 0.000313 | 5.93e+06 | B2
54 | 0.006 | 2.57e-05 | 4.53e+06 | B3
55 | 0.146 | 0.00107 | 7.33e+06 | B4
56 | 0.081 | 0.00049 | 6.06e+06 | B5
57 | 0.246 | 0.00124 | 4.69e+06 | B6
